Results: patent publication US10907134B2, “Mutated genes for the catalytic protein of oplophorus luciferase and use thereof” (JNC CORPORATION, priority 2013, dated 2021)
Positions count from the first letter of the chain named. In names and notes the source's numbering stands.

B1: KAZ-A54I: KAZ with single amino acid substitution A54I, SEQ ID NO: 6 (protein)
chain: FTLADFVGDWQQTAGYNQDQVLEQGGLSSLFQALGVSVTPIQKVVLSGENGLKIDIHVIIPYEGLSGFQMGLIEMIFKVVYPVDDHHFKIILHYGTLVIDGVTPNMIDYFGRPYPGIAVFDGKQITVTGTLWNGNKIYDERLINPDGSLLFRVTINGVTGWRLCENILA
B2: KAZ-Y138I: KAZ with single amino acid substitution Y138I, SEQ ID NO: 8 (protein)
chain: B1 chain with I54A, Y138I
B3: KAZ-V44I-A54I-Y138I: KAZ mutant with three amino acid substitutions V44I, A54I and Y138I, SEQ ID NO: 16 (protein)
chain: B1 chain with V44I, Y138I
B4: KAZ-V44I: KAZ with single amino acid substitution V44I, SEQ ID NO: 4 (protein)
chain: B1 chain with V44I, I54A
B5: KAZ-V44I-A54I: KAZ mutant with two amino acid substitutions V44I and A54I, SEQ ID NO: 10 (protein)
chain: B1 chain with V44I
B6: KAZ-V44I-Y138I: KAZ mutant with two amino acid substitutions V44I and Y138I, SEQ ID NO: 12 (protein)
chain: B1 chain with V44I, I54A, Y138I
B7: KAZ: wild 19 kDa catalytic protein of Oplophorus luciferase (19kOLase), amino acid sequence SEQ ID NO: 2 (protein, listed as Oplophorus gracilirostris)
chain: B1 chain with I54A
B8: KAZ-A54I-Y138I: KAZ mutant with two amino acid substitutions A54I and Y138I, SEQ ID NO: 14 (protein)
chain: B1 chain with Y138I

tested on: CHO-K1 cells; test: Luminescence activity of KAZ mutants expressed in animal culture cells without secretional signal peptide sequence; type: cell-based, Chinese hamster; conditions: Table 12; pcDNA3- vectors without secretion signal; CHO-K1; cell extracts; coelenterazine
Experimental: Chinese hamster ovary cell line CHO-K1 was cultured in Ham's F-12 medium (manufactured by Wako Pure Chemical Industries, Ltd.) supplemented with 10% (v/v) fetal bovine serum (manufactured by Biowest Inc.). The CHO-K1 cells were plated in a 6-well plate in 1×10^5 cells/well/2 mL medium (n=2) and cultured in an incubator at 37° C. in 5% (v/v) CO2. After 24 hours, the purified recombinant plasmid was transfected to CHO-K1 cells using a FuGene HD transfection kit (manufactured by Promega Corp.), which was provided for subsequent experiment. Specifically, 1 μg of the recombinant plasmid pGL4.13 [Luc2/sv40], 0.1 μg of the internal standard vector and 3 μL of FuGene HD were added to 100 μL of the medium, which was allowed to stand at room temperature for 15 minutes. Subsequently, 100 μL of the DNA-FuGene complex was added to the cells in the 6 wells. After incubation for 48 hours, the culture medium was collected. On the other hand, the KAZ mutants expressed in the cells were washed 3 times with 3 mL of 1×PBS, then suspended in 1 mL of 1×PBS and disrupted on ice by ultrasonication, which was used as enzyme solutions of the cell-extracts of KAZ mutants.
A luminescence reaction was started by adding 5 μL of the culture media and cell extracts obtained in EXAMPLE 10 to 100 μL of 30 mM Tris-HCl (pH 7.6)-10 mM EDTA (manufactured by Wako Pure Chemical Industries, Ltd.) containing 0.5 μg of coelenterazine (manufactured by INC Corp.). The luminescence activity was determined using a luminometer (manufactured by Atto Inc.: AB2200) for 60 seconds, and the maximum intensity of luminescence (Imax) was defined as a percentage.
The gene fragments of the KAZ mutants with two amino acid substitutions and three amino acid substitutions and nanoKAZ containing the Kozak sequence were digested with restriction enzymes Asp718 and XbaI, and inserted into the Asp718-XbaI site of pcDNA3 vector (manufactured by Invitrogen Inc.) to construct the vectors of pcDNA3-KAZ-V44I, pcDNA3-KAZ-A54I, pcDNA3-KAZ-Y138I, pcDNA3-KAZ-V44I-A54I, pcDNA3-KAZ-V44I-Y138I, pcDNA3-KAZ-A54I-Y138I and pcDNA3-KAZ-V44I-A54I-Y138I.
The culture media of the KAZ mutants with two amino acid substitutions and KAZ mutants with three amino acid substitutions and the enzyme solutions of cell-extracts of KAZ mutants were obtained in the same manner as EXAMPLE 10.
Luminescence activities of the resulting enzyme solutions and enzyme solutions of the cell-extracts of KAZ mutants were determined in the same manner as EXAMPLE 11.

Q: Which “Relative Luminescence Activity (Imax) Cell Extracts” value does the source give for B1 here?
A: 6.7

Q: Which “Relative Luminescence Activity (Imax) Cell Extracts” value does the source give for B2 here?
A: 6.4

Q: With B3 as the molecule, how does the “Relative Luminescence Activity (Imax) Cell Extracts” value read?
A: 56.0

Q: With B4 as the molecule, how does the “Relative Luminescence Activity (Imax) Cell Extracts” value read?
A: 3.7

Q: Which “Relative Luminescence Activity (Imax) Cell Extracts” value does the source give for B5 here?
A: 22.5

Q: With B6 as the molecule, how does the “Relative Luminescence Activity (Imax) Cell Extracts” value read?
A: 14.7

Q: With B7 as the molecule, how does the “Relative Luminescence Activity (Imax) Cell Extracts” value read?
A: 1.0

Q: Which “Relative Luminescence Activity (Imax) Cell Extracts” value does the source give for B8 here?
A: 21.5

same assay, conditions: Table 12; pcDNA3- vectors without secretion signal; CHO-K1; culture medium; coelenterazine

Q: With B1 as the molecule, how does the “Relative Luminescence Activity (Imax) Culture Medium” value read?
A: 0.03

Q: With B2 as the molecule, how does the “Relative Luminescence Activity (Imax) Culture Medium” value read?
A: 0.03

Q: With B3 as the molecule, how does the “Relative Luminescence Activity (Imax) Culture Medium” value read?
A: 0.08

Q: Which “Relative Luminescence Activity (Imax) Culture Medium” value does the source give for B4 here?
A: 0.06

Q: Which “Relative Luminescence Activity (Imax) Culture Medium” value does the source give for B5 here?
A: 0.05

Q: With B6 as the molecule, how does the “Relative Luminescence Activity (Imax) Culture Medium” value read?
A: 0.04

Q: With B7 as the molecule, how does the “Relative Luminescence Activity (Imax) Culture Medium” value read?
A: 0.03

Q: With B8 as the molecule, how does the “Relative Luminescence Activity (Imax) Culture Medium” value read?
A: 0.05

same assay, conditions: summary of results

Q: Which “Luminescence activity compared with wild KAZ when coelenterazine was used as a substrate” value does the source give for B3 here?
A: markedly higher luminescence activities than wild KAZ

Q: Which “Luminescence activity compared with wild KAZ when coelenterazine was used as a substrate” value does the source give for B5 here?
A: markedly higher luminescence activities than wild KAZ

Q: With B6 as the molecule, how does the “Luminescence activity compared with wild KAZ when coelenterazine was used as a substrate” value read?
A: markedly higher luminescence activities than wild KAZ

Q: Which “Luminescence activity compared with wild KAZ when coelenterazine was used as a substrate” value does the source give for B8 here?
A: markedly higher luminescence activities than wild KAZ

same assay, conditions: vectors without a secretion signal; CHO-K1; coelenterazine

Q: Which “Luminescence activity in the cell extracts, fold higher than wild KAZ” value does the source give for B1 here?
A: 6.7 fold

Q: For B2, which “Luminescence activity in the cell extracts, fold higher than wild KAZ” value is on record?
A: 6.4 fold

Q: Which “Luminescence activity in the cell extracts, fold higher than wild KAZ” value does the source give for B3 here?
A: 56 fold

Q: With B4 as the molecule, how does the “Luminescence activity in the cell extracts, fold higher than wild KAZ” value read?
A: 3.7 fold

Q: Which “Luminescence activity in the cell extracts, fold higher than wild KAZ” value does the source give for B5 here?
A: 23 fold

Q: Which “Luminescence activity in the cell extracts, fold higher than wild KAZ” value does the source give for B6 here?
A: 15 fold

Q: With B8 as the molecule, how does the “Luminescence activity in the cell extracts, fold higher than wild KAZ” value read?
A: 22 fold

tested on: not listed separately; test: Substrate specificities of KAZ mutants (ZZ-fused, crude enzyme), 6h-f-CTZ; type: biochemical; conditions: 1 μg substrate, integrated for 60 seconds
Experimental: (§1) The coelenterazine analogues used for substrate specificity studies were synthesized by the methods described in publications. Specifically, bis-coelenterazine was synthesized by the method described in Nakamura et al. (1997) Tetrahedron Lett. 38: 6405-6406; furimazine by the method described in Hall et al. (2012) ACS Chem. Biol. […]; and, 6h-coelenterazine, f-coelenterazine and 6h-f-coelenterazine by the methods described in Inouye et al (2013) Biochem. Biophys. Res. Commun. 437: 23-28.
(§2) DTT was added to the crude enzyme solutions obtained in EXAMPLE 17 at a final concentration of 1 mM and the mixtures were allowed to stand in an ice water for more than 5 hours in the same manner as Example 8. A luminescence reaction was started by the addition of 1 μL each of the crude enzyme solutions to 100 μL of TE containing 1 μg of coelenterazine (manufactured by JNC Corp.) or its analogues. The luminescence activities were determined using a luminometer (manufactured by Atto Inc.: AB2200) for 60 seconds, and the maximum intensity of luminescence (Imax) was shown as relative luminescence activity.

Q: Which “Relative Luminescence Activity 6h-f-CTZ Int.” value does the source give for B1 here?
A: 2.0

Q: For B2, which “Relative Luminescence Activity 6h-f-CTZ Int.” value is on record?
A: 0.8

Q: Which “Relative Luminescence Activity 6h-f-CTZ Int.” value does the source give for B3 here?
A: 9.6

Q: With B4 as the molecule, how does the “Relative Luminescence Activity 6h-f-CTZ Int.” value read?
A: 0.7

Q: With B5 as the molecule, how does the “Relative Luminescence Activity 6h-f-CTZ Int.” value read?
A: 4.0

Q: Which “Relative Luminescence Activity 6h-f-CTZ Int.” value does the source give for B6 here?
A: 4.2

Q: With B7 as the molecule, how does the “Relative Luminescence Activity 6h-f-CTZ Int.” value read?
A: 0.7

Q: Which “Relative Luminescence Activity 6h-f-CTZ Int.” value does the source give for B8 here?
A: 5.7

same assay, conditions: 1 μg substrate, maximum intensity of luminescence

Q: Which “Relative Luminescence Activity 6h-f-CTZ Imax” value does the source give for B1 here?
A: 1.6

Q: Which “Relative Luminescence Activity 6h-f-CTZ Imax” value does the source give for B2 here?
A: 0.6

Q: With B3 as the molecule, how does the “Relative Luminescence Activity 6h-f-CTZ Imax” value read?
A: 9.5

Q: For B4, which “Relative Luminescence Activity 6h-f-CTZ Imax” value is on record?
A: 0.6

Q: Which “Relative Luminescence Activity 6h-f-CTZ Imax” value does the source give for B5 here?
A: 3.2

Q: Which “Relative Luminescence Activity 6h-f-CTZ Imax” value does the source give for B6 here?
A: 3.6

Q: With B7 as the molecule, how does the “Relative Luminescence Activity 6h-f-CTZ Imax” value read?
A: 0.6

Q: For B8, which “Relative Luminescence Activity 6h-f-CTZ Imax” value is on record?
A: 5.2

tested on: not listed separately; test: Substrate specificities of KAZ mutants (ZZ-fused, crude enzyme), furimazine; type: biochemical; conditions: 1 μg substrate, integrated for 60 seconds
Experimental: as §1, §2

Q: Which “Relative Luminescence Activity Furimazine Int.” value does the source give for B1 here?
A: 2.1

Q: With B2 as the molecule, how does the “Relative Luminescence Activity Furimazine Int.” value read?
A: 0.8

Q: For B3, which “Relative Luminescence Activity Furimazine Int.” value is on record?
A: 9.2

Q: With B4 as the molecule, how does the “Relative Luminescence Activity Furimazine Int.” value read?
A: 0.9

Q: With B5 as the molecule, how does the “Relative Luminescence Activity Furimazine Int.” value read?
A: 4.3

Q: With B6 as the molecule, how does the “Relative Luminescence Activity Furimazine Int.” value read?
A: 5.4

Q: Which “Relative Luminescence Activity Furimazine Int.” value does the source give for B7 here?
A: 0.5

Q: Which “Relative Luminescence Activity Furimazine Int.” value does the source give for B8 here?
A: 5.8

same assay, conditions: 1 μg substrate, maximum intensity of luminescence

Q: For B1, which “Relative Luminescence Activity Furimazine Imax” value is on record?
A: 2.0

Q: Which “Relative Luminescence Activity Furimazine Imax” value does the source give for B2 here?
A: 0.6

Q: For B3, which “Relative Luminescence Activity Furimazine Imax” value is on record?
A: 10.6

Q: With B4 as the molecule, how does the “Relative Luminescence Activity Furimazine Imax” value read?
A: 0.6

Q: For B5, which “Relative Luminescence Activity Furimazine Imax” value is on record?
A: 3.4

Q: For B6, which “Relative Luminescence Activity Furimazine Imax” value is on record?
A: 5.1

Q: Which “Relative Luminescence Activity Furimazine Imax” value does the source give for B7 here?
A: 0.4

Q: Which “Relative Luminescence Activity Furimazine Imax” value does the source give for B8 here?
A: 5.9
